# Reference: publication PMC3882140
# Target: CP-431C/mCherrySP141(C140A) P22 procapsid (bacteriophage P22) (UniProt P26747)
# Test: pelleting by ultracentrifugation and resuspension
substance,measurement,value
CP-431C/mCherrySP141(C140A) P22 procapsid (from UniProt P26747 1-430; P26748 141-303) (complex),"soluble capsid recovered after pelleting, relative to wtCP/mCherrySP141(C140A)",3%
